Test results reported in patent WO2019080889A1 (dated 2019).

Tests used:
[1] = target: T1, human CSF-1R protein (huCSF-1R), full length, expressed on CHO-S cells (human, UniProt P07333 20-972); assay: flow cytometry on CHO cells highly expressing CSF-1R
T1 construct: whole, on cells; Also used here as the target of the monocyte proliferation assays (native receptor on human monocytes); also called CSF-1R/CHO cells; CHO cells highly expressing CSF-1R

[2] = target: T2, cynomolgus monkey CSF-1R-His (cynomolgus monkey, UniProt A0A2K5WG90 20-512); assay: ELISA on cynomolgus CSF-1R-His
T2 construct: Bought protein; also called cynoCSF-1R-His; cynomolgus CSF-1R protein; not shown: His tag

Row | Binder | binding result [1] | binding result [2]
1 | humanized anti-CSF-1R antibody huC11 (antibody, human IgG1, kappa, V domains shown, Full-length chains; also called huC11 (VH-b heavy chain and VL-b light chain)) VH: EVQLVQSGAEVKKPGASVKVSCKASGYTFSNYYMNWVRQAPGQGLEWMGEMNPNTGDSSYNQKFKGRVTLTVDKSTSTAYMELSSLRSEDTAVYYCARRSPWWFFDVWGQGTMVTVSS VL: DIVMTQSPDSLAVSLGERATINCKSSQSLLSSGNQKTSLTWYQQKPGQPPKLLIYWASTRESGVPDRFSGSGSGTDFTLTISSLQAEDVAVYYCQNDYTYPFTFGQGTKLEIKR | binds | 
2 | humanized anti-CSF-1R antibody huC19 (antibody, human IgG1, kappa, V domains shown, Full-length chains; also called huC19 (VH-c heavy chain and VL-a light chain)) VH: QVQLVQSGAEVKKPGASVKVSCKASAITFTDYYMNWVKQAPGQGLEWIGDIYPNTGGTTYNQKFKGRVTLTVDTSISTAYMELSRLRSEDTAVYYCAREKITMEYYYAMDYWGQGTLVTVSS VL: DIQLTQSPSSLSASVGDRVTITCRASESVSSHDIHLIHWYQQKPGKAPKLLIYAASSLESGVPSRFSGSGSGTDFTLTISSLQPEDFATYFCQQSIEDPPTFGGGTKVEIKR | binds | 
3 | anti-CSF-1R chimeric antibody C27C (antibody, V domains shown) VH: EVQLQQSGAELVRPGALVKLSCKASGFNIKDYYMHWVKQRPEQGLEWIGRFDPENGDTIYDWKFQDKAIITSDTSSNTAYLHLSSLTSEDTAVYYCARSGDYMFDYWGQGTLVTVSA VL: ETTVTQSPASLSMAIGEKVTIRCITSTGVDDDFNWYQQRPGEPPKLLISEGNTLRPGVPSRFSSSGYGTDFVFTIENMLSEDVADYFCLQSDHLPFTFGSGTKLEIK |  | no binding
4 | anti-CSF-1R chimeric antibody C19C (antibody, V domains shown) VH: EVQLQQSGPELVKPGASVKISCTASAITFTDYYMNWVKQSPGKGLEWIGDIYPNNGGTTYNQKFKGKATLTVDKSSTTAYMELRSLTSEDSAVYYCAREKITMEYYYAMDYWGQGTSVTVSS VL: DIVLTQSPASLAVSLGQRATISCRASESVSSHDIHLIHWYQQKPGQSPKLLIYAASSLESGVPARFSGSGSATDFTLNIHPVEEEDAATYFCQQSIEDPPTFGGGTKLEIK | binds | 
5 | anti-CSF-1R chimeric antibody C11C (antibody, V domains shown) VH: EVQLQQSGPELVKPGASVKISCKASGYTFSNYYMNWVNQRHGERLEWIGEMNPNNGDSSYNQKFKGKATLTVDKSSSTAYMELRSLTSEDSAVYYCARRSPWWFFDVWGPGTTVIVSS VL: DIVMTQSPSSLTVTAGEKVTMSCKSSQSLLNSGNQKNSLTWYQQKPGQPPKLLIYWASTRESGVPDRFTGSGSGTDFTLTISSVQTEDLAVYYCQNDYTYPFTFGTGTKLEIK | binds | 
